According to patent US20240390418A1 (MINERVA BIOTECHNOLOGIES, published 2024):

B3: PSMGFR peptide (peptide)
peptide: GTINVHDVETQFNQYKTEAASRYNLTISDVSVSDVPFPFSAQSGA
notes: also called MUC1* peptide

Legend:
PSMGFR peptide [1] = target: B3; assay: ELISA, PSMGFR peptide on plate (FIG. 5)
Experimental: Humanized MNC2 scFv is then incubated with the surface, washed and detected according to standard methods.

PSMGFR peptide [2] = target: B3; assay: ELISA, peptide on plate (FIG. 201A)
Experimental: (§1) FIG. 201A-201C show graphs of ELISA assays to determine the binding of another set of antibodies generated by immunizing animals with the PSMGFR peptide. […] F3, B12, B2, B7, B9, 8C7F3 and H11 all bound to the PSMGFR peptide and to the N-10 peptide.
(§2) This same ELISA assay was performed on the antibodies of the invention (FIGS. 64-66 and FIG. 201). Note that only 20A10 exactly matches the binding profile of MNC2 and MNE6. 25E6, 28F9 and 18G12 are all able to bind to the N-10 peptide. 18B4 is the only antibody raised against the PSMGFR peptide that requires the 10 most N-terminal amino acids of the peptide. The color of the bars for each antibody in the ELISA graph are color coded to match the deductive cognate sequence, or a portion thereof, of that antibody. In addition, another set of antibodies was assayed by ELISA (FIG. 201). Of this set, B12, B2, B7, B9, 8C7F3, and H11 bound to the PSMGFR peptide, bound to the N-10 peptide, but not to the C-10 peptide (FIG. 201). Although these antibodies were raised against the N+20/C-27 peptide, all but one, 45C11, still bind to the PSMGFR peptide, albeit at the N-terminal portion of PSMGFR.

C-10 peptide [3] = target: T1, C-10 peptide; assay: ELISA, peptide on plate (FIG. 201C)
T1 construct: also called PSMGFR C-10; PSMGFR minus 10 amino acids from the C-terminus
T1 peptide: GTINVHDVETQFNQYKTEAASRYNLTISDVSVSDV
Experimental: as §1, §2

N-10 peptide [4] = target: T2, N-10 peptide; assay: ELISA, peptide on plate (FIG. 201B)
T2 construct: also called PSMGFR N-10; PSMGFR minus 10 amino acids from the N-terminus
T2 peptide: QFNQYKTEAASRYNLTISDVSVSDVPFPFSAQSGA
Experimental: as §1, §2

NME7AB = target: T3, NME7AB (Homo sapiens (Human), UniProt Q9Y5B8 92-376); assay: ELISA, peptide on plate (FIG. 2A)
T3 construct: NME7A in the text appears to be NME7AB; also called NM23-H7; NME7A
T3 sequence: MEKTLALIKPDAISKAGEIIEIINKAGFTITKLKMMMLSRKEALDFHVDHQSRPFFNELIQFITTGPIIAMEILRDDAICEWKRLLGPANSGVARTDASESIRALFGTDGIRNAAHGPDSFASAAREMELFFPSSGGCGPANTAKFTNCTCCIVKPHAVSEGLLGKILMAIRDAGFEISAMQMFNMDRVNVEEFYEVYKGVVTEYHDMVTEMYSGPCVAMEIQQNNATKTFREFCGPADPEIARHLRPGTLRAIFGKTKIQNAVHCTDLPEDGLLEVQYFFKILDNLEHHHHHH
Experimental: FIGS. 2A-2I show results of ELISA assays. MUC1* peptides PSMGFR, PSMGFR minus 10 amino acids from the N-terminus aka N-10, or PSMGFR minus 10 amino acids from the C-terminus, aka C-10 are immobilized on the plate and the following are assayed for binding: NME7-AB (FIG. 2A), MNC2 monoclonal antibody (FIG. 2B), MNE6 monoclonal antibody (FIG. 2C), or dimeric NME1 (FIG. 2D). […] MUC1* peptides PSMGFR minus 10 amino acids from the N-terminus aka N-10, or PSMGFR minus 10 amino acids from the C-terminus, aka C-10, are immobilized on the plate and the following are assayed for binding: MNC3 (FIG. 2E) and MNC8 (FIG. 2F).

C-10 peptide [5] = target: T1, C-10 peptide; assay: ELISA, peptide on plate (FIG. 64)
N+9/C-9 peptide = target: T4, N+9/C-9 peptide; assay: ELISA, peptide on plate (FIG. 64)
T4 peptide: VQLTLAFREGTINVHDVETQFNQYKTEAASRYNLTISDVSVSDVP

N-10 peptide [6] = target: T2, N-10 peptide; assay: peptide ELISA, told in tissue legend
PSMGFR peptide [7] = target: B3; assay: peptide ELISA, told in tissue legend
N-19 peptide = target: T5, N-19 peptide; assay: ELISA, peptide on plate (FIG. 69)
T5 peptide: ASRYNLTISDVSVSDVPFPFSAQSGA

N-30 peptide = target: T6, N-30 peptide; assay: ELISA, peptide on plate (FIG. 69)
T6 peptide: SVSDVPFPFSAQSGA

N-10/C-5 peptide = target: T7, N-10/C-5 peptide; assay: ELISA, peptide on plate (FIG. 69)
T7 peptide: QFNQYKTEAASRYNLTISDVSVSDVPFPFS

N-19/C-5 peptide = target: T8, N-19/C-5 peptide; assay: ELISA, peptide on plate (FIG. 69)
T8 peptide: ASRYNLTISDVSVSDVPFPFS

N-10 peptide [8] = target: T2, N-10 peptide; assay: ELISA, peptide on plate (FIG. 69)
N-26 peptide = target: T9, N-26 peptide; assay: ELISA, peptide on plate (FIG. 69)
T9 peptide: ISDVSVSDVPFPFSAQSGA

C-10 peptide [9] = target: T1, C-10 peptide; assay: peptide ELISA
N-10 peptide [10] = target: T2, N-10 peptide; assay: ELISA, peptide on plate (FIG. 64)
PSMGFR peptide [11] = target: B3; assay: peptide binding, told in Western blot legend
N-10 peptide [12] = target: T2, N-10 peptide; assay: ELISA, peptide on plate (FIG. 9)
C-10 peptide [13] = target: T1, C-10 peptide; assay: ELISA, peptide on plate (FIG. 9)
PSMGFR peptide [14] = target: B3; assay: ELISA, peptide on plate (FIG. 9)

B1: humanized MNC2 scFv (scFv, V domains shown)
VH: EVQLVESGGGLVKPGGSLRLSCAASGFTFSGYAMSWVRQAPGKGLEWVSTISSGGTYIYYPDSVKGRFTISRDNAKNSLYLQMNSLRAEDTAVYYCARLGGDNYYEYFDVWGKGTTVTVSS
VL: DIVLTQSPASLAVSPGQRATITCRASKSVSTSGYSYMHWYQQKPGQPPKLLIYLASNLESGVPARFSGSGSGTDFTLTINPVEANDTANYYCQHSRELPFTFGGGTKVEIKR
notes: also called huMNC2scFv; huMNC2 scFv
EC50 (PSMGFR peptide [1]): ~333 nM

B2: monoclonal antibody B9 (antibody, V domains shown)
VH: EVQVVESGGDLVKPGGSLKLSCAASGFTFSRYGMSWVRQTPDKRLEWVATISSGGTYIYYPDSVKGRFTISRDNAKNTLYLQMSSLKSEDTAMYYCARDNYGSSYDYAMDYWGQGTSVTVSS
VL: QIVLTQSPAIMSASPGEEVTLTCSASSSVSYMHWFQQRPGTSPKLWIYTTSNLASGVPARFSGSGSGTSYSLTISRMEAEDAATYYCQQRSSYPFTFGSGTKLEIK
notes: Raised against PSMGFR
binding result (PSMGFR peptide [2]): binds | binding result (C-10 peptide [3]): no binding | binding result (N-10 peptide [4]): binds

B3
binding result (NME7AB): binds

B4: monoclonal antibody 20A10 (antibody, V domains shown)
VH: EVMLVESGGGLVKPGGSLKLSCAASGFTFSTYAMSWIRQTPEKRLEWVASIGRAGSTYYSDSVKGRFTISRDNVRNILYLQMSSLRSEDTAMYYCARGPIYNDYDEFAYWGQGTLVTVSA
VL: NIMMTQSPSSLAVSAGEKVTMSCKSSQSVLYSSNQKNYLAWYQQKPGQSPKLLIYWASTRESGVPDRFTGSGSGTDFTLTISSVQAEDLAVYYCHQYLSSLTFGAGTKLELK
notes: Raised against PSMGFR; also called MN20A10; anti-PSMGFR antibody 20A10
binding result (C-10 peptide [5]): no binding | binding result (N+9/C-9 peptide): no binding | binding result (N-10 peptide [6]): binds | binding result (PSMGFR peptide [7]): binds

B5: monoclonal antibody B2 (antibody, V domains shown)
VH: EVVLVESGGGLVEPGGSLKLSCVASGFAFSTFAMSWIRQTPEKRLEWVAAISNGGGYTYYPDTLKGRFSISRDNAKNTLYLQMSSLRSEDTAVYYCARRYYDLYFDLWGRGTSLIVSS
VL: DILMTQTPLSLPVSLGDQASISCRSSQNIVHSNGNTYLEWYLQKPGQSPKLLIYKVSNRFSGVPDRFSGSGSGTDFTLKISRVEAEDLGVYYCFQDSHVPLTFGAGTRLELK
notes: Raised against PSMGFR
binding result (PSMGFR peptide [2]): binds | binding result (C-10 peptide [3]): no binding | binding result (N-10 peptide [4]): binds

B6: monoclonal antibody B7 (antibody, V domains shown)
VH: EVQVVESGGDLVKPGGSLKLSCAASGFTFSRYGMSWVRQTPDKRLEWVATISSGGTYIYYPDSVKGRFTISRDNAKNTLYLQMSSLKSEDTAMYYCARDNYGSSYDYAMDYWGQGTSVTVSS
VL: DVLMTQTPLSLPVSLGDQASISCRSSQTIVHSNGNTYLEWYLQKPGQSPKLLIYKVSNRFSGVPDRFSGSGSGTDFTLKISRVEAEDLGVYYCFQDSHVPLTFGAGTKLELK
notes: Raised against PSMGFR
binding result (PSMGFR peptide [2]): binds | binding result (C-10 peptide [3]): no binding | binding result (N-10 peptide [4]): binds

B7: monoclonal antibody 17H6 (antibody, V domains shown)
VH: EVKLVESGGGLVQPGGSLRLSCATSGFTFTDYYMSWVRQPPRKALEWLGFIRNKANGYTAEYSASVKGRFTISRDVSQNLLYLQMNILRAEDSATYYCAKDYYGSNPAWFAYWGQGTLVTVSA
VL: DILMTQTPLSLPVSLGDQASISCRSSQSIVHSSGNTFLEWYLQKPGQSPKLLIYKVSNRFSGVPDRFSGSGSGIDFTLKISRVEAEDLGVYYCFQGSHVPFTFGSGTKLEIK
notes: Raised against the N+9/C-9 peptide; also called N+9/C-9 antibody 17H6
binding result (N-19 peptide): no binding | binding result (N-30 peptide): no binding | binding result (N-10/C-5 peptide): no binding | binding result (N-19/C-5 peptide): no binding | binding result (N-10 peptide [8]): no binding | binding result (N-26 peptide): no binding

B8: monoclonal antibody 3C2B1 (antibody, V domains shown)
VH: EVMLVESGGGLVKPGGSLKLSCAASGITFSTYTMSWVRQTPEKRLEWVATISTGGDKTYYSDSVKGRFTISRDNAKNNLYLQMSSLRSEDTALYYCARGTTAMYYYAMDYWGQGTSVTVSS
VL: DIVLTQSPASLAVSLGQRATISCRASKSISTSDYNYIHWYQQKPGQPPKLLIYLASNLESGVPARFSGSGSGTDFTLNIHPVEEEDAATYYCQHSRELPLTFGAGTKLELK
notes: Raised against PSMGFR; also called MN3C2B1; anti-PSMGFR antibody 3C2B1
binding result (C-10 peptide [9]): no binding | binding result (N-10 peptide [6]): binds | binding result (PSMGFR peptide [7]): binds

B9: monoclonal antibody 28F9 (antibody, V domains shown)
VH: QVQLQQPGAELVQPGASVKLSCKASGYTFTGYFLYWVKQRPGHGLEWIGGIHPSNGDTDFNEKFKNKATLTVDISSSTAYMQLSSLTSEDSAVYYCTLLIGVYWGQGTTLTVSS
VL: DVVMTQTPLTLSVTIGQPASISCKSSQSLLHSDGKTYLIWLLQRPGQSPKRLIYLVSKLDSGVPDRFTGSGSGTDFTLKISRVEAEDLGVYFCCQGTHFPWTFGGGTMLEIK
notes: Raised against PSMGFR; also called MN28F9; anti-PSMGFR antibody 28F9
binding result (N-10 peptide [10]): binds | binding result (N+9/C-9 peptide): binds | binding result (C-10 peptide [9]): binds | binding result (PSMGFR peptide [11]): binds

B10: monoclonal antibody 18G12 (antibody, V domains shown)
VH: QVQLQQSGAELVKPGASVKLSCKASGYTFTGYFLYWVKQRPGQGLEWIGGINPDNGGIDFNEKFRNKATLTVDKSSSTAYMQLSSLTSEDSAVYYCTLLIGNYWGQGTTLTVSS
VL: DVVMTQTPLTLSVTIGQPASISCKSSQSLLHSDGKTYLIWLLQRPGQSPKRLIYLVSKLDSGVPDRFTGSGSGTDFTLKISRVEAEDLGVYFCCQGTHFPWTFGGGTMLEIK
notes: Raised against PSMGFR; also called MN18G12; anti-PSMGFR antibody 18G12
binding result (N-10 peptide [10]): binds | binding result (N+9/C-9 peptide): binds | binding result (C-10 peptide [9]): binds | binding result (PSMGFR peptide [11]): binds

B11: monoclonal antibody B12 (antibody, V domains shown)
VH: QAQLKESGPGLVAPSQSLSITCTVSGFSLTSYGVHWVRQPPGKGLEWLGVIWPGGSTNYNSTLMSRMRIIKDNSKSQVFLKMNSLQIDDTAMYYCARDRTPRVGAWFAYWGQGTLVTVSA
VL: IIVLTQSPASLAVSLGQRATISCRASESVATYGNNFMQWYQQKPGQPPKLLIYLASTLDSGVPARFSGSGSRTDFTLTIDPVEADDAATYYCQQNNEDPPTFGGGTKLEIK
notes: Raised against PSMGFR
binding result (PSMGFR peptide [2]): binds | binding result (C-10 peptide [3]): no binding | binding result (N-10 peptide [4]): binds

B12: monoclonal antibody 8C7F3 (antibody, V domains shown)
VH: EVMLVESGGGLVKPGGSLKLSCAASGFTFSTYAMSWVRQTPEKRLEWVAAISNGGGYTYYPDSLKGRFTISRDNAKNTLYLQMSSLRSEDTATYYCARRYYDHYFDYWGQGTALTVSS
VL: IIVLTQSPASLAVSLGQRATISCRASESVATYGNNFMQWYQQKPGQPPKLLIYLASTLDSGVPARFSGSGSRTDFTLTIDPVEADDAATYYCQQNNEDPPTFGGGTKLEIK
notes: Raised against PSMGFR
binding result (PSMGFR peptide [2]): binds | binding result (C-10 peptide [3]): no binding | binding result (N-10 peptide [4]): binds

B13: humanized MNC3 scFv-Fc (Fc fusion)
VH: QVQLVQSGAEVKKPGASVKVSCKASGYTFTDYAMNWVRQAPGQGLEWMGVISTFSGNTNFNQKFKGRVTMTTDTSTSTAYMELRSLRSDDTAVYYCARSDYYGPYFDYWGQGTTLTVSS
VL: DIVMTQTPLSLSVTPGQPASISCRSSQTIVHSNGNTYLEWYLQKPGQSPQLLIYKVSNRFSGVPDRFSGSGSGTDFTLKISRVEAEDVGVYYCFQGSHVPFTFGGGTKVEIKRT
binding result (N-10 peptide [12]): binds | binding result (C-10 peptide [13]): binds | binding result (PSMGFR peptide [14]): binds
